In US20240190962A1 (IMMUNOWAKE, published 2024):

B1: IL-12(E59A/F60A)/anti-PD-1(D100N) (other)
light: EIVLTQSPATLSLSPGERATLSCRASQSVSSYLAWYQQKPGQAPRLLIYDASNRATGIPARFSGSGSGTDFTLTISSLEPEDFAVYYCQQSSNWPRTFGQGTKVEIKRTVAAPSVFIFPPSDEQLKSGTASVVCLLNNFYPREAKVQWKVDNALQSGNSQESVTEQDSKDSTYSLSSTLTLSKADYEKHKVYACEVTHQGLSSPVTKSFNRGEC
heavy 1: QVQLVESGGGVVQPGRSLRLDCKASGITFSNSGMHWVRQAPGKGLEWVAVIWYDGSKRYYADSVKGRFTISRDNSKNTLFLQMNSLRAEDTAVYYCATNNDYWGQGTLVTVSSASTKGPSVFPLAPSSKSTSGGTAALGCLVKDYFPEPVTVSWNSGALTSGVHTFPAVLQSSGLYSLSSVVTVPSSSLGTQTYICNVNHKPSNTKVDKKVEPKSCDKTHTCPPCPAPEKKGGPSVFLFPPKPKDTLMISRTPEVTCVVVDVSHEDPEVKFNWYVDGVEVHNAKTKPREEQYNSTYRVVSVLTVLHQDWLNGKEYKCKVSNKALPAPIEKTISKAKGQPREPQVYVLPPSREEMTKNQVSLLCLVKGFYPSDIAVEWESNGQPENRYMTWPPVLDSDGSFFLYSKLTVDKSRWQQGNVFSCSVMHEALHNHYTQKSLSLSPGK
heavy 2: QVQLVESGGGVVQPGRSLRLDCKASGITFSNSGMHWVRQAPGKGLEWVAVIWYDGSKRYYADSVKGRFTISRDNSKNTLFLQMNSLRAEDTAVYYCATNNDYWGQGTLVTVSSASTKGPSVFPLAPSSKSTSGGTAALGCLVKDYFPEPVTVSWNSGALTSGVHTFPAVLQSSGLYSLSSVVTVPSSSLGTQTYICNVNHKPSNTKVDKKVEPKSCDKPGSGIWELKKDVYVVELDWYPDAPGEMVVLTCDTPEEDGITWTLDQSSEVLGSGKTLTIQVKAAGDAGQYTCHKGGEVLSHSLLLLHKKEDGIWSTDILKDQKEPKNKTFLRCEAKNYSGRFTCWWLTTISTDLTFSVKSSRGSSDPQGVTCGAATLSAERVRGDNKEYEYSVECQEDSACPAAEESLPIEVMVDAVHKLKYENYTSSFFIRDIIKPDPPKNLQLKPLKNSRQVEVSWEYPDTWSTPHSYFSLTFCVQVQGKSKREKKDRVFTDKTSATVICRKNASISVRAQDRYYSSSWSEWASVPCSGGGGSGGGGSGGGGSGGGGSGRNLPVATPDPGMFPCLHHSQNLLRAVSNMLQKARQTLEFYPCTSEEIDHEDITKDKTSTVEACLPLELTKNESCLNSRETSFITNGSCLASRKTSFMMALCLSSIYEDLKMYQVEFKTMNAKLLMDPKRQIFLDQNMLAVIDELMQALNFNSETVPQKSSLEEPDFYKTKIKLCILLHAFRIRAVTIDRVMSYLNASDKTHTCPPCPAPEDEGGPSVFLFPPKPKDTLMISRTPEVTCVVVDVSHEDPEVKFNWYVDGVEVHNAKTKPREEQYNSTYRVVSVLTVLHQDWLNGKEYKCKVSNKALPAPIEKTISKAKGQPREPQVYVYPPSREEMTKNQVSLTCLVKGFYPSDIAVEWESNGQPENNYKTTPPVLDEDGSFALVSKLTVDKSRWQQGNVFSCSVMHEALHNHYTQKSLSLSPGK
B2: IL-12(E59A/F60A)/anti-PD-1(D100R) (other)
light: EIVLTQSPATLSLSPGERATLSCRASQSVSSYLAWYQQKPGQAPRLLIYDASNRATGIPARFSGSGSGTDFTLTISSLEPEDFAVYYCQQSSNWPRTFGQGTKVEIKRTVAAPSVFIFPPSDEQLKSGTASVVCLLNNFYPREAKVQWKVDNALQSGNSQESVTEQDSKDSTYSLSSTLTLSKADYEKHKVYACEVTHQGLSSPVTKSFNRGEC
heavy 1: QVQLVESGGGVVQPGRSLRLDCKASGITFSNSGMHWVRQAPGKGLEWVAVIWYDGSKRYYADSVKGRFTISRDNSKNTLFLQMNSLRAEDTAVYYCATNRDYWGQGTLVTVSSASTKGPSVFPLAPSSKSTSGGTAALGCLVKDYFPEPVTVSWNSGALTSGVHTFPAVLQSSGLYSLSSVVTVPSSSLGTQTYICNVNHKPSNTKVDKKVEPKSCDKTHTCPPCPAPEKKGGPSVFLFPPKPKDTLMISRTPEVTCVVVDVSHEDPEVKFNWYVDGVEVHNAKTKPREEQYNSTYRVVSVLTVLHQDWLNGKEYKCKVSNKALPAPIEKTISKAKGQPREPQVYVLPPSREEMTKNQVSLLCLVKGFYPSDIAVEWESNGQPENRYMTWPPVLDSDGSFFLYSKLTVDKSRWQQGNVFSCSVMHEALHNHYTQKSLSLSPGK
heavy 2: QVQLVESGGGVVQPGRSLRLDCKASGITFSNSGMHWVRQAPGKGLEWVAVIWYDGSKRYYADSVKGRFTISRDNSKNTLFLQMNSLRAEDTAVYYCATNRDYWGQGTLVTVSSASTKGPSVFPLAPSSKSTSGGTAALGCLVKDYFPEPVTVSWNSGALTSGVHTFPAVLQSSGLYSLSSVVTVPSSSLGTQTYICNVNHKPSNTKVDKKVEPKSCDKPGSGIWELKKDVYVVELDWYPDAPGEMVVLTCDTPEEDGITWTLDQSSEVLGSGKTLTIQVKAAGDAGQYTCHKGGEVLSHSLLLLHKKEDGIWSTDILKDQKEPKNKTFLRCEAKNYSGRFTCWWLTTISTDLTFSVKSSRGSSDPQGVTCGAATLSAERVRGDNKEYEYSVECQEDSACPAAEESLPIEVMVDAVHKLKYENYTSSFFIRDIIKPDPPKNLQLKPLKNSRQVEVSWEYPDTWSTPHSYFSLTFCVQVQGKSKREKKDRVFTDKTSATVICRKNASISVRAQDRYYSSSWSEWASVPCSGGGGSGGGGSGGGGSGGGGSGRNLPVATPDPGMFPCLHHSQNLLRAVSNMLQKARQTLEFYPCTSEEIDHEDITKDKTSTVEACLPLELTKNESCLNSRETSFITNGSCLASRKTSFMMALCLSSIYEDLKMYQVEFKTMNAKLLMDPKRQIFLDQNMLAVIDELMQALNFNSETVPQKSSLEEPDFYKTKIKLCILLHAFRIRAVTIDRVMSYLNASDKTHTCPPCPAPEDEGGPSVFLFPPKPKDTLMISRTPEVTCVVVDVSHEDPEVKFNWYVDGVEVHNAKTKPREEQYNSTYRVVSVLTVLHQDWLNGKEYKCKVSNKALPAPIEKTISKAKGQPREPQVYVYPPSREEMTKNQVSLTCLVKGFYPSDIAVEWESNGQPENNYKTTPPVLDEDGSFALVSKLTVDKSRWQQGNVFSCSVMHEALHNHYTQKSLSLSPGK
B3: IL-12(E59A/F60A)/anti-PD-1(D100G) (other)
light: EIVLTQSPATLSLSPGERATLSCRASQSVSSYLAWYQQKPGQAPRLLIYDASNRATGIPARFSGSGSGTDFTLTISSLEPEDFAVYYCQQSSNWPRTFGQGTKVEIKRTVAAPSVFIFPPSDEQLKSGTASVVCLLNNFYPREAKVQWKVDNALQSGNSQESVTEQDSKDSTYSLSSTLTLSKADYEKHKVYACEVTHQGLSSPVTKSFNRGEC
heavy 1: QVQLVESGGGVVQPGRSLRLDCKASGITFSNSGMHWVRQAPGKGLEWVAVIWYDGSKRYYADSVKGRFTISRDNSKNTLFLQMNSLRAEDTAVYYCATNGDYWGQGTLVTVSSASTKGPSVFPLAPSSKSTSGGTAALGCLVKDYFPEPVTVSWNSGALTSGVHTFPAVLQSSGLYSLSSVVTVPSSSLGTQTYICNVNHKPSNTKVDKKVEPKSCDKTHTCPPCPAPEKKGGPSVFLFPPKPKDTLMISRTPEVTCVVVDVSHEDPEVKFNWYVDGVEVHNAKTKPREEQYNSTYRVVSVLTVLHQDWLNGKEYKCKVSNKALPAPIEKTISKAKGQPREPQVYVLPPSREEMTKNQVSLLCLVKGFYPSDIAVEWESNGQPENRYMTWPPVLDSDGSFFLYSKLTVDKSRWQQGNVFSCSVMHEALHNHYTQKSLSLSPGK
heavy 2: QVQLVESGGGVVQPGRSLRLDCKASGITFSNSGMHWVRQAPGKGLEWVAVIWYDGSKRYYADSVKGRFTISRDNSKNTLFLQMNSLRAEDTAVYYCATNGDYWGQGTLVTVSSASTKGPSVFPLAPSSKSTSGGTAALGCLVKDYFPEPVTVSWNSGALTSGVHTFPAVLQSSGLYSLSSVVTVPSSSLGTQTYICNVNHKPSNTKVDKKVEPKSCDKPGSGIWELKKDVYVVELDWYPDAPGEMVVLTCDTPEEDGITWTLDQSSEVLGSGKTLTIQVKAAGDAGQYTCHKGGEVLSHSLLLLHKKEDGIWSTDILKDQKEPKNKTFLRCEAKNYSGRFTCWWLTTISTDLTFSVKSSRGSSDPQGVTCGAATLSAERVRGDNKEYEYSVECQEDSACPAAEESLPIEVMVDAVHKLKYENYTSSFFIRDIIKPDPPKNLQLKPLKNSRQVEVSWEYPDTWSTPHSYFSLTFCVQVQGKSKREKKDRVFTDKTSATVICRKNASISVRAQDRYYSSSWSEWASVPCSGGGGSGGGGSGGGGSGGGGSGRNLPVATPDPGMFPCLHHSQNLLRAVSNMLQKARQTLEFYPCTSEEIDHEDITKDKTSTVEACLPLELTKNESCLNSRETSFITNGSCLASRKTSFMMALCLSSIYEDLKMYQVEFKTMNAKLLMDPKRQIFLDQNMLAVIDELMQALNFNSETVPQKSSLEEPDFYKTKIKLCILLHAFRIRAVTIDRVMSYLNASDKTHTCPPCPAPEDEGGPSVFLFPPKPKDTLMISRTPEVTCVVVDVSHEDPEVKFNWYVDGVEVHNAKTKPREEQYNSTYRVVSVLTVLHQDWLNGKEYKCKVSNKALPAPIEKTISKAKGQPREPQVYVYPPSREEMTKNQVSLTCLVKGFYPSDIAVEWESNGQPENNYKTTPPVLDEDGSFALVSKLTVDKSRWQQGNVFSCSVMHEALHNHYTQKSLSLSPGK

target: human IL-12 receptor complex (IL-12Rβ1, IL-12Rβ2) (human, UniProt P42701 24-662; Q99665 24-862); test: cell-based or functional assay
Sequence (Q99665 24-862, chain 2 of 2, other chains not shown): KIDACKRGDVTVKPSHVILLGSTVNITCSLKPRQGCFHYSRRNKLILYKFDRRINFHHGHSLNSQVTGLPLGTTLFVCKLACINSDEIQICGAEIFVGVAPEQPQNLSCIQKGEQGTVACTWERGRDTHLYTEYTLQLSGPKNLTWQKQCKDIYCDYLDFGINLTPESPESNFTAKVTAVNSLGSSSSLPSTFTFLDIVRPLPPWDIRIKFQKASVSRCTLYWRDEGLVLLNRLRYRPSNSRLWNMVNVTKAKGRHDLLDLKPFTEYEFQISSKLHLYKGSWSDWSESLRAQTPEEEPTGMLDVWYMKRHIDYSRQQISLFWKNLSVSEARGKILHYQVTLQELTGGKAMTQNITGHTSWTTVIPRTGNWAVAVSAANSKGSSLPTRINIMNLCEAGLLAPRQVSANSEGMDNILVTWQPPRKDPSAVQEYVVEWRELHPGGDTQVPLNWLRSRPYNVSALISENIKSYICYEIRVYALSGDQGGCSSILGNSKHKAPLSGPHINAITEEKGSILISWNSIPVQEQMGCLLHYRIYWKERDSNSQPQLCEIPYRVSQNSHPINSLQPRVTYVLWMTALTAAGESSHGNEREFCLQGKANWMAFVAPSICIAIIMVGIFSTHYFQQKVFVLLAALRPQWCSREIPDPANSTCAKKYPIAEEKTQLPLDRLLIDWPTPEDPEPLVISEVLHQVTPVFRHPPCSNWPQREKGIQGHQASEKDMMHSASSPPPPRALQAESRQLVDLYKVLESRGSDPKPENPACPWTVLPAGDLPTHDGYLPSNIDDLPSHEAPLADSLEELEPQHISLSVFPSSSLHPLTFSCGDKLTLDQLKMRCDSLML

| Binder | IL-12 biological activity, HEK-IL-12 | IL-12 biological activity, HEK-IL-12-PD-1 (high) | IL-12 biological activity, HEK-IL-12-PD-1 (low) | PBMC (IFN-γ ng/ml) |
| --- | --- | --- | --- | --- |
| B1 | < 0.2% | 38% | 33% | 820 ng/mL |
| B2 | < 0.2% | 10% | 3% | 69 ng/mL |
| B3 | < 0.2% | 33% | 17% | 120 ng/mL |
